Assay [1] has as its target WT scavenger receptor class B type I (human SR-BI) (human) (UniProt Q8WTV0). The assay can be described thus: radioligand binding; [^125I]-HDL binding: transfected COS-7 cells incubated with 10 μg/ml double-radiolabeled human HDL for 1.5 h at 4°C.
Assay [2] deals with R174C-SR-BI (human variant of scavenger receptor class B type I) (human) (UniProt Q8WTV0). The assay is described as above.
In assay [3] the target is Human HDL, double-radiolabeled. The assay is described as follows: [125I]-HDL cell association on transfected COS-7 cells. Particulars: COS-7 cells transiently expressing WT or mutant SR-BI; n = 3 independent transfections; empty vector bar est. 30 % of WT; parent: est. 100; read off a plot.

On to “Human HDL, double-radiolabeled (complex)”, for which, in assay [1], the HDL binding (raw value) (ng/mg protein) was 22.7. In assay [2], this substance had an HDL binding, percent of WT-SR-BI of 31.3%.
On to “WT scavenger receptor class B type I (human SR-BI) (from UniProt Q8WTV0-2) D185R”, for which the percent of parent in assay [3] was 82 % of WT.
As for “WT scavenger receptor class B type I (human SR-BI) (from UniProt Q8WTV0-2) R174D; D185R”, in assay [3], the percent of parent was 44 % of WT.
Regarding “WT scavenger receptor class B type I (human SR-BI) (from UniProt Q8WTV0-2) R174K”, the percent of parent in assay [3] is 72 % of WT.
